The target in one data set is T1, p23 (Homo sapiens, UniProt Q15185 1-160).
T1 sequence: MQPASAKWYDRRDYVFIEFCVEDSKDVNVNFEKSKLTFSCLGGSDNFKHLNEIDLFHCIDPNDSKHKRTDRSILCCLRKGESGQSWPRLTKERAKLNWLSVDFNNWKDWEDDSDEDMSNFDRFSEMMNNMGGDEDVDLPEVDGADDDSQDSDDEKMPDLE
Put plainly: NMR DOSY.

The target in another data set is p53 DBD (Homo sapiens, UniProt P04637 88-312). Kind of data set: fluorescence anisotropy. Background: Fluorescence polarisation rises when a labelled molecule tumbles more slowly, as on binding a larger partner.
p53 DBD, sequence (P04637 88-312): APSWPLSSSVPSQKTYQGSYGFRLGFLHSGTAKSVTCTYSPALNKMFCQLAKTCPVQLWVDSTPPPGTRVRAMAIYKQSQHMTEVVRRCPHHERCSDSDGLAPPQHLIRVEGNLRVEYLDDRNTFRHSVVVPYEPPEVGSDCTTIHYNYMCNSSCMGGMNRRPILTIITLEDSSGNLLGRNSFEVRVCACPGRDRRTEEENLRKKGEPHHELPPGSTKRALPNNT

B1: p21 20-mer DNA, unlabeled (dsDNA)
DNA 1: GAACATGTTCGAACATGTTC
DNA 2: GAACATGTTCGAACATGTTC
As for B1, the binding result with p23 was “no binding”.

B2: p21 20-mer DNA, Cy5 (dsDNA)
DNA 1: GAACATGTTCGAACATGTTC
DNA 2: GAACATGTTCGAACATGTTC
For the molecule B2, the Kd with p53 DBD was 45 ± 7 nM.

What is called Kd is the constant that tells how readily two partners part at equilibrium. A low value points to higher affinity.

These data come from paper PMC5811392.
